Data: the DeepSol protein solubility set

Assay: soluble on expression in E. coli; label from the status in PepcDB or PDB records
With “MSLKYDLKYLSVPLPEEIQRVKEFGDFASADIAIDFWLTKELPQALKERLIIEKDVIKMMRMNEYPHSFAKADQMMRDTFQDYQTEELIRLKETGLVDWVYIDGEPYFQLRFLANLIKTNAAYVARLREAESNQLEILRKKELKENIEQMQKNGGRKVRTTIKATIQVKKEFERPGERVRVHLPLPKACQQQSEIEILATSPEATYIAAEDAPQRTLCFETILKENQTFTVEYCYVNRMVYQQLEENNVDKMQPSFDLEEQLPHIRFTPYLRNLADEIVGDESNPLKKARLIYDFVTTKIHYSFMREYFTISNISEYAATNLKGDCGVQAILFITLCRIAGIPAKWQSGLYVSTHYTGCHDWAQFYIKPYGWLFADLSFGGGAYRDGDRQRWNHYFGNLDVFRMVANSEIQADFQPAKMQLRADPIDNQRGEFEYENEGLPYACLIVSQERLSMEELPFDEGGSHHHHHH” the “soluble on expression in E. coli” value was “soluble”. With “MATPDTSAAKMAGQDRQKLKVVAWLQNLVERLKGWTPGHCQKLFDEKELIQLCYRAREVFWKNNVKLELKAPVKICGDLHGQYEDLLALLELNGWPPETKYLFLGDYVDRGPFSIEVISLLFAYQVLHPDKVFLLRGNHESRPVNMQYGFFMECRKRFSNALYDAFQLAFYCMPLCAVVSDKIICMHGGISEDLVDLRQLDKVERPCDVPDIGVIADLTWADPDATIQMYAESQRGAGRVFGAEAVKKFLNTHHLELVVRAHQVVMDGYEFFADRQLVTIFSAPSYCGQMDNAAAVMTVDEELVCSFTVMRPDLKKDKEKKAAVGIVPN” the “soluble on expression in E. coli” value was “not soluble”. In the case of “MNTLTTTSVVLPAPRPAINQGIDINNEMVLNHTAIYENCLAQVTQENTVENALMLLDPYGTAPLSAYAGVWSLEPAEIIVTVQDAAKTAMPVEHLYTLTAGANLLPVLGLVADTENRIVFSQADTPLAVYTLITQPLPPVDSAEVVLGFPIINVTQPATDANKMAPGFYFITHFDRYNYALDQNGLVRWYVTQDYPSYNFVRIDNGHFLTTSEAKNTYLDMYEFDMMGRLHTFYNLDNQFHHSIWPWDSNTIVAPSEYTSGRPDDLKTNEDGVSVVDLTTGLETAYYDMAKVLDTTRVSRPSGTAPGEDPTVKDWLHINQSYVNETNQLLIASGRHQSAVFGVDLQTQALRFILSTHEDWDDAYQPYLLTPVDSEGVALYDFSKQEDIDAADRDFWTWGQHNVVEIANNTPGIVEFMVFDNGNYRSRDDSKSLLPPDNYSRIVHFVVNMNEMTVMRPFEYGKELGARGYSSCVSAKAIQQNGNIVVHFADCTFDENGRAISCQPGESDIIDPQAGSEAMGLLILQEIAPTEKTVLFEATMTSGYYKNAETNGEGYRYDITSFRVYKMDLYALEHHHHHH”, the “soluble on expression in E. coli” value is reported as “soluble”. With “MGSDKIHHHHHHMTTKKFRMEDVGLSKLKVEKNPKDVKQTEWKSVLPNEVYRVARESGTETPHTGGFNDHFEKGRYVCLCCGSELFNSDAKFWAGCGWPAFSESVGQDANIVRIVDRSHGMHRTEVRCKTCDAHLGHVFNDGPKETTGERYCINSVCMAFEKKD” the “soluble on expression in E. coli” value was “not soluble”. With “MNKEKEQQLNEALVLFSFAYKTFTEEPDLIIKKYGIQRIHHRILFFVARFPGLSVNELLKLLEISKQALHKPMHILINKGLIFSKESDYDRRIKEIFLTNEGERLEKEISNIQREHLLSIFSQFHNGDEKSWLEIMRQLSLKRLGYAAWNKKK” the “soluble on expression in E. coli” value was “not soluble”. For “MSLNNYKIFISAGESSGDIHGANLMRSLLKKNPNITFYGLGKERMNEAGLHCLCDMKTKSLMWLHALTELSAFLRMKKDCVRFFQHETPCAVILIDYCGFNFQLARAAKKLKIPVIYYITPQLWAHGPWRIKKLRKLVDFLIVIYPFEKSFYETSGLPVTYVGHPLFDELDRERRINNHLSMEEKQVGEYIVSLLPGSRKQEIIRLLPLLLRAAKQIKQTIPSIKILVSCTSEQYFSLIRLIVEASHLPAEIIVGCVRKIIQSSDICLAGSGTVTLQIAYYHTPMLIVYKISPFAYFIARPFLTTPYIGLVNILANKMIVPETLMCSNNYSRLANQAIELLRNNQKRHLCIENLRSLMDDIGKPGASERAAEEIFRFLRQETEGHHHHHH”, the “soluble on expression in E. coli” value was “not soluble”. In the case of “MSLNSFNLEGKVALVTGCKRGIGKAMAVALAQAGVDVIGVSASLESEGSDVAKAVEATGRKFSAYKCDFNSREAIYTFIEQVKAAHPVIDILVNNAGTILRAPAAEHGDSLWDEVINVNLNSQFILSRELGREMVKRGSGKVIFTASLLTFQGGITVPGYAASKGAIGQLTKALANEWAGSGVNVNAIAPGYIATDNTQALRDDPERATSILSRIPQNRWGKPEDFAGPVVFLASEAASYVNGSVMVVDGGWMGREGHHHHHH”, the “soluble on expression in E. coli” value is reported as “not soluble”. In the case of “MGSDKIHHHHHHMFLRNMWYVAAFSADVKPGKCLARTFLNEPVVLFRTASGSLGALIDRCSHRAMPLSEGHVDGDIIRCPYHGLEFNAAGVCAHIPGQERIPAAANVRSYPVSERDGLIWIWMGEPEKADLRSIMSNPEHRDPGWSWRPYYMHVNSNWQLLVDNILDLTHVAYIHANTIGGNPQTHFNADMSVQFDGEKVTLLRKMPNSVPPKTYVAAGGFKGNVDRWQMVEYRPCGGNVLRVNAGACEVGTGAYEGRRDNGFTLLNVHGVTPETETTTHYIWTICTDAPRESGVPDMLFDQFYETICEDERALEAQQRRINDMPDMRFVGIASDGAVSRARLLLERLHENETAVTS”, the “soluble on expression in E. coli” value is reported as “not soluble”. In the case of “MSLPRGLELLIAQTILQGFDAQYGRFLEVTSGAQQRFEQADWHAVQQAMKNRIHLYDHHVGLVVEQLRCITNGQSTDAAFLLRVKEHYTRLLPITRASRLRRAFLTPCTVGYLTTARLLPSGFLSLALSQSAAFVPFPPAGQRLSPRSRLGISTDARYQRPTAAPAWQNKSRDIHYIIRHLTETLGTDNLAESHLQVANELFYRNKAAWLVGKLITPSGTLPFLLPIHQTDDGELFIDTCLTTTAEASIVFGFARSYFMVYAPLPAALVEWLREILPGKTTAELYMAIGCQKHAKTESYREYLVYLQGCNEQFIEAPGIRGMVMLVFTLPGFDRVFKVIKDRFAPQKEMSAAHVRACYQLVKEHDRVGRMADTQEFENFVLEKRHISPALMELLLQEAAEKITDLGEQIVIRHLYIERRMVPLNIWLEQVEGQQLRDAIEEYGNAIRQLAAANIFPGDMLFKNFGVTRHGRVVFYDYDEICYMTEVNFRDIPPPRYPEDELASEPWYSVSPGDVFPEEFRHWLCADPRIGPLFEEMHADLFRADYWRALQNRIREGHVEDVYAYRRRQRFSVRYGEMLFEGHHHHHH”, the “soluble on expression in E. coli” value is reported as “not soluble”. For “GPGSMEVNATLIDCCDPQKPSRVLFHFLILDAPSPSNLPTYIKELQHRGVRHLVRVCGPTYDATLVKSRGIDVHSWPFDDGAPPTRAVLDSWLKLLDTELARQQEDPSVPPPTIGVHCVAGLGRAPILVALALVEYGNVSALDAIALIREKRKGAINQTQMHWITKYKRRHQGAGCVIM”, the “soluble on expression in E. coli” value was “soluble”. With “SCREKTELTPDQQTLLHFIMDSYNKQRMPQEITNKILKEEFSAEENFLILTEMATNHVQVLVEFTKKLPGFQTLDHEDQIALLKGSAVEAMFLRSAEIFNKKLPSGHSDLLEERIRNSGISDEYITPMFSFYKSIGELKMTQEEYALLTAIVILSPDRQYIKDREAVEKLQEPLLDVLQKLCKIHQPENPQHFACLLGRLTELRTFNHHHAEMLMSWRVNDHKFTPLLCEIWDVQ” the “soluble on expression in E. coli” value was “soluble”. In the case of “MGSDKIHHHHHHMSIKTSNTDFKTRIRQQIEDPIMRKAVANAQQRIGANRQKMVDELGHWEEWRDRAAQIRDHVLSNLDAYLYQLSEKVTQNGGHVYFARTKEDATRYILQVAQRKNARKVVKSKSMVTEEIGVNHVLQDAGIQVIETDLGEYILQLDQDPPSHVVVPAIHKDRHQIRRVLHERLGYEGPETPEAMTLFIRQKIREDFLSAEIGITGCNFAVAETGSVCLVTNEGNARMCTTLPKTHIAVMGMERIAPTFAEVDVLITMLARSAVGARLTGYNTWLTGPREAGHVDGPEEFHLVIVDNGRSEVLASEFRDVLRCIRCGACMNTCPAYRHIGGHGYGSIYPGPIGAVISPLLGGYKDFKDLPYACSLCTACDNVCPVRIPLSKLILRHRRVMAEKGITAKAEQRAIKMFAYANSHPGLWKVGMMAGAHAASWFINGGKTPLKFGAISDWMEARDLPEADGESFRSWFKKHQAQEKKNG”, the “soluble on expression in E. coli” value is reported as “not soluble”. With “MDREAFVQTLTACRLCPRLVAWREEVVGRKRAFRGEPYWARPVPGFGDPEARILLFGLAPGAHGSNRTGRPFTGDASGAFLYPLLHEAGLSSKPESLPGDDLRLYGVYLTAAVRCAPPKNKPTPEELRACARWTEVELGLLPEVRVYVALGRIALEALLAHFGLRKSAHPFRHGAHYPLPGGRHLLASYHVSRQNTQTGRLTREMFLEVLMEAKRLAGL” the “soluble on expression in E. coli” value was “soluble”. With “MRYFINIYVFRIKKILVLSVVNHISMDNPFSKFTNSRTIQADLSLLEENYIPDSFPHREKQINDMVTILSSIMRNSRPSNIIVYGKTGTGKTSTTKYVTRMLQEATSNVEVIYVNCEIYDSPYSILVYVANFAGGEKIPELGWPVDRIYREAVDRINGTGKFFVIVLDEMDRLIKKSGGDSLYVLLKLMTDVENVKVSMIGITNDTTLLENLDSRIKSRLNQESIVFPPYNATEIRDIIASRLEKVFGPGVVDDTAINLCAAIGAQEHGDARKAIDLMRIAIEIAIRENRLKVTEKEVYEARDKYEMNVMHEAINTLPIHSKIVLLSAIVTQEIEPNSVITGEIYENYRRICEDLGFTPLTPRRISDLLTELSDYGLIVVDERNMGKYGRTRGFSVVKEIETIKKYLMEDENLSMFKTSKMTKQARFDS” the “soluble on expression in E. coli” value was “not soluble”. In the case of “SLSYTISRPINQLMLAMQKAESGDLTSRYEGEEQDEVGRLGRSFNTMIEQIGKLISLTERQERKKREAELHSLQANIKPHFLYNTLDTIQWMARKKNASDVADLVGALSKLFRIGLSKGGTIIPLVDEIEHIKNYLQIQSVRYKNKLNYSLVMPSNMERLSILKIVLQPIVENAIYHGIKERRGPGLITIEAERENDMLIIRIRDNGKGIKPETLQQLRTNVNLFLEKGDKEGGQRLTKGYGLINVHARLRLTFGEPYGVKIDSVFNEGTVVTIFHPILEGGVETKRA”, the “soluble on expression in E. coli” value is reported as “soluble”. With “MNEKEKIIEYWRRRARECLDDAKLLLKNERLHSAVNRIYYALFYQVSALLLAKGLSFSKHSGVLAAFNREFVKTGKVNKELGKFYNRMFEHRKTGDYGELVEFEEENVKDWIRKAEGFLDAIEKLIEDLKRA” the “soluble on expression in E. coli” value was “not soluble”. In the case of “MFAHQNASFPPRPEGRGGKEAVFRLTVFCIITFSSLICEAMKRAYKYRFYPTTEQAELLAQTFGCVRFVYNSILRWRTDAYYERKEKIGYLQANARLTALKKEPEFAWLNDVSCVPLQQSLRHQQTAFANFFAGRAAYPAFKSKRHKQAAEFTASAFKYRDGKLYMAKNKIPLDVRWSRPLPSVPSTVTISKDAAGRYFVSCLCEFEPASLPITSSMVGIDVGLKDLFVTDTGFRSGNPRHTAKYAARLALLQRRLSKKAKGSKNRAKAHLKVARLHAKIADCRLDALHKATRKLINDNQVVCVESLKVRNMIRNPSLSKAIADASWGELVRQLRYKGEWAGRSVVAIDQFFPSSKRCSCCGFIMKKMPLDVRKWQCPECGTDHDRDVNAARNIKAAGLAVLAHGEPVNPESLKAALEHHHHHH”, the “soluble on expression in E. coli” value is reported as “not soluble”. With “MGSDKIHHHHHHMKTRYTYGGDEHVYVEIDDEMSLDAFFIALSLSKLVREANIPGVTEICPANASFEVRFDPDVIAPDEMMARIRELEGAAKAQEKRLDTRIIEIPVFYEDPWTHETLMRFRERHQDPSGTDLDYAARINGYDDAAAFIEAHHSQPWFVSMVGFVSGLPFLYQLVERQKQLEVPKYLRPRTDTPKLTVGYGGCFSCIYSVRGAGGYQMFGITPMPIFDPEQKISYLKDFMVFFRPGDIVKWKPIDRAEYDAITAQVEAGSYVPKIAEVAFDLDAFNKDMTGFNAKLMEALNDA” the “soluble on expression in E. coli” value was “not soluble”. In the case of “MALDLTGYLDRINYRGATDPTLDVLRDLVSAHTGAIAFENLDPLMGVPVDDLSAEALADKLVDRRRGGYCYEHNGLIGYVLAELGYRVRRLAGRVVWLAPPDAPTPAQTHTVLAVTFPGCQGPYLVDVGFGGMTPTAPLRLETGTVQQTALEPYRLDDRGDGLVLQAMVRDEWQALYEFSTLTRPQVDLRVGSWFVSTHPTSHFVTGLMAATVADDARWNLMGRNLAIHRRGGTEKILLEDAAAVVDTLGDRFGINVADVGERGRLEARIDKVCFGAENR”, the “soluble on expression in E. coli” value is reported as “soluble”.
